Starred links: 1 amine or outer side, 2 acyl side, 3 side chain; linkers in the order of their positions; H or OH if unused. Positions of bridges follow the written chain, without caps; N, C: chain ends. Non-standard residues stand in square brackets, D forms with d. Primed or numbered codes have the meaning given here. B5(10) = 2-amino-2-(pent-4-en-1-yl)hept-6-enoic acid, bis(4-pentenyl)glycine, stitching residue bearing both staples, C=CCCCC(CCCC=C)(N[*:1])C(=O)[*:2]; PyrS2″ = (S)-3-amino-1-((pent-4-en-1-yloxy)carbonyl)pyrrolidine-3-carboxylic acid (stapling residue), C=CCCCOC(=O)N1CC[C@@](N[*:1])(C(=O)[*:2])C1; PyrS2 = (S)-3-amino-1-((pent-4-en-1-yloxy)carbonyl)pyrrolidine-3-carboxylic acid, C=CCCCOC(=O)N1CC[C@@](N[*:1])(C(=O)[*:2])C1; B5(3) = 2,2-bis(4-pentenyl)glycine (stitching residue), C=CCCCC(CCCC=C)(N[*:1])C(=O)[*:2]; Phe(3-COOH) = N[C@@H](Cc1cccc(C(=O)O)c1)C(=O)O; Bta = N[C@@H](Cc1csc2ccccc12)C(=O)O; αAllylPro = C=CC[C@@]1(C(=O)O)CCCN1; tBuAla = CC(C)(C)C[C@H](N)C(=O)O; 3Thi = N[C@@H](Cc1ccsc1)C(=O)O; Abu = CC[C@H](N)C(=O)O; Aib = CC(C)(N)C(=O)O

Assay [1] has as its target T1, full-length beta-Catenin (Uniprot ID P35222) (Homo sapiens (Human), UniProt P35222 1-781).
T1 construct: also called bCat; B-Catenin
T1 sequence: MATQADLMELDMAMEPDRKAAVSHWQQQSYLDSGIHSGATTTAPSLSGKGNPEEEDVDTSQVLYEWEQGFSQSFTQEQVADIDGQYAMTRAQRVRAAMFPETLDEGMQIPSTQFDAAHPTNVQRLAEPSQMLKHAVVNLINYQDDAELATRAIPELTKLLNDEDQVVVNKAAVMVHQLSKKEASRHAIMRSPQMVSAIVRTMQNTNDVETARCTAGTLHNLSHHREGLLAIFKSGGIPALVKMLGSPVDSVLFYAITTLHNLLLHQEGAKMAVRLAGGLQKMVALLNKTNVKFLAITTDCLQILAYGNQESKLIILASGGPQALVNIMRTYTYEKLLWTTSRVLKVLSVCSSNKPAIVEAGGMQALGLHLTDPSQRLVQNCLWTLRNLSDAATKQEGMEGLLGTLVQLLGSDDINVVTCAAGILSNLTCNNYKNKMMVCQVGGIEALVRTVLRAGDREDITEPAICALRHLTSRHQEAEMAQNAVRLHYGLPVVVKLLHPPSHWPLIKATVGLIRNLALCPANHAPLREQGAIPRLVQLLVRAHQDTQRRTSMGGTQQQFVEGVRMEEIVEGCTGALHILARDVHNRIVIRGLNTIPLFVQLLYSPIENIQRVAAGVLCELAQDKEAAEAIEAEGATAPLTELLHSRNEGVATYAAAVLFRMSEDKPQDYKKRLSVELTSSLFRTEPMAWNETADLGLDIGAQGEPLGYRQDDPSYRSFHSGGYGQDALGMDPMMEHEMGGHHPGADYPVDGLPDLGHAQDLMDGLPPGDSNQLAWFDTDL
Briefly: fluorescence polarization competition; full-length beta-catenin + 5FAM-TCF4(10-53) probe. As to the method: The plate was incubated protected from light for 60 minutes at 20° C. prior to read. Reads were performed on a CLARIOstar plate reader (BMG Labtech) in duplicate, and data were fitted to a 1:1 binding model with hill slope using an in-house script. All provided concentrations are final concentrations.
In general terms: In fluorescence polarisation assays a small probe gives low polarisation when free and higher when bound to something large.

The target of assay [2] is T2, B-cat-Halo (beta-catenin HaloTag NanoBRET construct expressed in HEK293 cells) (UniProt P35222 1-781).
T2 sequence (looked up): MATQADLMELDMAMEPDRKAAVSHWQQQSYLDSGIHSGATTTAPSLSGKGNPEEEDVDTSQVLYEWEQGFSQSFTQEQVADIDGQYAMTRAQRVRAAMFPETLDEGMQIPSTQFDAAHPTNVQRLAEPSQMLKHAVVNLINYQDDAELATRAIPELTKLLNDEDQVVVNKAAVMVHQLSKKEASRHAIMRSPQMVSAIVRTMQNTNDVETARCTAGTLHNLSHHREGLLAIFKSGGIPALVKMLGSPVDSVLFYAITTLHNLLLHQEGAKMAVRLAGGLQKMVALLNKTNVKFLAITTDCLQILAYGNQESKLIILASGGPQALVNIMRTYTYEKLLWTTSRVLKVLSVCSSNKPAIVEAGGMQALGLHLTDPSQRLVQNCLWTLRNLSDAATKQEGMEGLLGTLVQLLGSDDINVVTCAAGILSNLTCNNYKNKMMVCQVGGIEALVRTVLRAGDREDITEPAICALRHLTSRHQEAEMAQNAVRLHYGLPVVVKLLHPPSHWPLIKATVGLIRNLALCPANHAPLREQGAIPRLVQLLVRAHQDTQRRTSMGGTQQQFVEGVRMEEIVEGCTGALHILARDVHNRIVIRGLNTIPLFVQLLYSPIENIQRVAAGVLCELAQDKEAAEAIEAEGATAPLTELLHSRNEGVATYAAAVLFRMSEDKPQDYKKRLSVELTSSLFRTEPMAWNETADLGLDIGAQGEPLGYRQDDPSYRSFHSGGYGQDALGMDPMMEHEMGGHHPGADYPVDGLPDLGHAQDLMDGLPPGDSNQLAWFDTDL
Briefly: cell-based or functional assay.

The target in assay [3] is T3, beta-catenin in DLD1 TCF/LEF luciferase reporter cells (UniProt P35222 1-781).
T3 sequence (looked up): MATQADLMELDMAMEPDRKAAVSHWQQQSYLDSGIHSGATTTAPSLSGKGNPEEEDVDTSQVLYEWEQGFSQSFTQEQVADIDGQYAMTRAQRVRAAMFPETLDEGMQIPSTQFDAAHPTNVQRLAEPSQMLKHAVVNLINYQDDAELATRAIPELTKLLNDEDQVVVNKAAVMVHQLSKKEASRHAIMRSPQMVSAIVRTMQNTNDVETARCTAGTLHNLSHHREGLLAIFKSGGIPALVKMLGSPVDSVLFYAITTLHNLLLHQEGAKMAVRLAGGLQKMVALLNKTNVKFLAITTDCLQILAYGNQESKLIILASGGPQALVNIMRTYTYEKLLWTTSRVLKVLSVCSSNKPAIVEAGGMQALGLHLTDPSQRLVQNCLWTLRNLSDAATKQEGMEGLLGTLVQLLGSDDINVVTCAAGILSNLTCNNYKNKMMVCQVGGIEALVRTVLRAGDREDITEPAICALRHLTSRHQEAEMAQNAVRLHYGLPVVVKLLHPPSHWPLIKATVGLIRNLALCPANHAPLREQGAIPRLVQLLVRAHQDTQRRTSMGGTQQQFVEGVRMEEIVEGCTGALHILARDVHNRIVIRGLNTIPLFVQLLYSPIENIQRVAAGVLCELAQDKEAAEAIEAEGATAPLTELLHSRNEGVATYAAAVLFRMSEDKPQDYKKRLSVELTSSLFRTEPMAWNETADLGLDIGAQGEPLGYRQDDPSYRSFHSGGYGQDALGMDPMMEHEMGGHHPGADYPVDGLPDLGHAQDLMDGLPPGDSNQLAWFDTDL
Kind of assay: cell-based or functional assay.

B1: I-1286 (peptide)
peptide: Ac-[αAllylPro]NA[B5(10)]DTAAFL[PyrS2]F[Bta]Q-NH2
modifications: staple 1-4, 4-11; not fully specified; printed as Ac-PL3-Asn-Ala-B5-Asp-Thr-Ala-Ala-Phe-Leu-PyrS2-Phe-BztA-Gln-NH2
Consider B1, for which the EC50 in assay [1] came to 10 µM.

B2: I-1296 (peptide)
peptide: Ac-[αAllylPro]DA[B5(10)]NTAAFL[PyrS2]F[Bta]Q-NH2
modifications: staple 1-4, 4-11; not fully specified; printed as Ac-PL3-Asp-Ala-B5-Asn-Thr-Ala-Ala-Phe-Leu-PyrS2-Phe-BztA-Gln-NH2
Turning to B2, in assay [1], the EC50 was 3.79 µM.

With Ac-[αAllylPro]D[tBuAla][B5(3)]D[Phe(3-COOH)][Aib]AF[Abu][PyrS2″][3Thi][Bta][Me2Gln]A-NH2 (staple 1-4, 4-11) [Ac-PL3-Asp-Npg-B5-Asp-3COOHF-Aib-Ala-Phe-Abu-PyrS2-3Thi-BztA-Me2Gln-Ala-NH2], the “NanoBRET Abs IC50” value in assay [2] is 2.3 µM. Also, the “DLD1 4% Abs IC50” value in assay [3] came to 0.6 µM.

A word on the EC50: it is the concentration that produces a half-maximal response.

Source of the values: US20240116985A1 (published 2024).
